The results in this text go back to patent US20220204580A1 (AstraZeneca / MedImmune, published 2022).

Numbered stars: 1 amine (or outer) side, 2 acyl side, 3 side chain; on linkers, the order of the positions; unused ones are H or OH. Bridge positions count the residues as written; N and C are the ends. Square brackets hold non-standard residues; d marks the D form. Side chains are listed from the residue outwards. Ends that are not written are not given here. * marks the point of attachment. C18 diacid = O=C(O)CCCCCCCCCCCCCCCCC(=O)*; γGlu = O=C(O)[C@H](CCC(=O)[*:2])N[*:1]; Aib = CC(C)(N)C(=O)O

In assay [1] the target is T1, human amylin receptor (calcitonin receptor co-expressed with receptor activity modifying protein, RAMP3) (human, UniProt P30988 25-474; O60896 24-148).
T1 sequence (looked up) 1: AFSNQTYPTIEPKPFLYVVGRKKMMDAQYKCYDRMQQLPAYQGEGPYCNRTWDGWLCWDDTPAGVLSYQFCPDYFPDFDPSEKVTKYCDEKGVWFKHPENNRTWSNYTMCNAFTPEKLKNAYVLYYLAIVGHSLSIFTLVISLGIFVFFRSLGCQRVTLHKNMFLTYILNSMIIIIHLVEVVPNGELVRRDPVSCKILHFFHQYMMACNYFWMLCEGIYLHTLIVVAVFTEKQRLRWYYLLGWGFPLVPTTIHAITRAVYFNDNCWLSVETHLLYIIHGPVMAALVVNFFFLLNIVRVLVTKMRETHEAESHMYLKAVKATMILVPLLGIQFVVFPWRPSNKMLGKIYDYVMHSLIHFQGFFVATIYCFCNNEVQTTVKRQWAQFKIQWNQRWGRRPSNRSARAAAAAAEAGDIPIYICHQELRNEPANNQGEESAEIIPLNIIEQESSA
T1 sequence (looked up) 2: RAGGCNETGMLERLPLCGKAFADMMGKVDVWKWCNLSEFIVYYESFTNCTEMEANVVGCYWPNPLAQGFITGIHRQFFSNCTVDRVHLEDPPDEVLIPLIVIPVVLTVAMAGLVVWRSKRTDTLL
The assay is described as follows: cell-based or functional assay.

The target of assay [2] is T2, human calcitonin receptor (human, UniProt P30988 25-474).
T2 sequence (looked up): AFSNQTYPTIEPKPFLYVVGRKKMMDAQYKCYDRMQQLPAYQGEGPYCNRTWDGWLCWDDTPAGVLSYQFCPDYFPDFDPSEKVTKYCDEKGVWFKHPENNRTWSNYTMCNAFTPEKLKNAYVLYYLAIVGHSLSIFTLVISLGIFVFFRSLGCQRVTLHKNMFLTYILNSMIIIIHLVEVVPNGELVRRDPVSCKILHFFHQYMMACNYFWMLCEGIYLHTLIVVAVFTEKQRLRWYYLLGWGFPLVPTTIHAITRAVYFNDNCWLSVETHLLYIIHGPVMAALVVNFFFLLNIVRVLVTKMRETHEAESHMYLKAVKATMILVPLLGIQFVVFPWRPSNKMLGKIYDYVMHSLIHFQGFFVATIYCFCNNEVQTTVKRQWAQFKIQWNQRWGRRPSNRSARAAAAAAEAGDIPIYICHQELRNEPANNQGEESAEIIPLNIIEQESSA
The assay is described as follows: cell-based or functional assay.

Consider K([γGlu-C18 diacid])CNTATCATQRLANFLVHSSNNFGPI[dL]PPTNVGSNTY-NH2 (disulfide 2-7) [Peptide 103 (SEQ ID NO: 103)], for which, in assay [1], the “EC50 (cAMP production)” value is 161 pM and the “Ratio (EC50 hCTR / EC50 hAMYR3)” value was determined as 12. Also, the “EC50 (cAMP production)” value in assay [2] is 1880 pM.

As for K([γGlu-C18 diacid])CNTATCATQRLANFLVHSSNNFGPIL[dP]PTNVGSNTY-NH2 (disulfide 2-7) [Peptide 104 (SEQ ID NO: 104)], the results for the “EC50 (cAMP production)” value in assay [1] and in assay [2] were 79 pM and 1820 pM, respectively. In addition, in assay [1], the “Ratio (EC50 hCTR / EC50 hAMYR3)” value came to 23.

B1: Peptide 106 (SEQ ID NO: 106) (peptide)
peptide: K([γGlu-C18 diacid])KCNTATCATQRLANFLVHSSNNFGP[Aib]LPPTNVGSNTY-NH2
modifications: disulfide 3-8; N-terminus assumed
SMILES: CC(C)C[C@H](NC(=O)[C@H](CCCNC(=N)N)NC(=O)[C@H](CCC(N)=O)NC(=O)[C@@H](NC(=O)[C@H](C)NC(=O)[C@@H]1CSSC[C@H](NC(=O)[C@H](CCCCN)NC(=O)[C@@H](N)CCCCNC(=O)CC[C@H](NC(=O)CCCCCCCCCCCCCCCCC(=O)O)C(=O)O)C(=O)N[C@@H](CC(N)=O)C(=O)N[C@@H]([C@@H](C)O)C(=O)N[C@@H](C)C(=O)N[C@@H]([C@@H](C)O)C(=O)N1)[C@@H](C)O)C(=O)N[C@@H](C)C(=O)N[C@@H](CC(N)=O)C(=O)N[C@@H](Cc1ccccc1)C(=O)N[C@@H](CC(C)C)C(=O)N[C@H](C(=O)N[C@@H](Cc1c[nH]cn1)C(=O)N[C@@H](CO)C(=O)N[C@@H](CO)C(=O)N[C@@H](CC(N)=O)C(=O)N[C@@H](CC(N)=O)C(=O)N[C@@H](Cc1ccccc1)C(=O)NCC(=O)N1CCC[C@H]1C(=O)NC(C)(C)C(=O)N[C@@H](CC(C)C)C(=O)N1CCC[C@H]1C(=O)N1CCC[C@H]1C(=O)N[C@H](C(=O)N[C@@H](CC(N)=O)C(=O)N[C@H](C(=O)NCC(=O)N[C@@H](CO)C(=O)N[C@@H](CC(N)=O)C(=O)N[C@H](C(=O)N[C@@H](Cc1ccc(O)cc1)C(N)=O)[C@@H](C)O)C(C)C)[C@@H](C)O)C(C)C
Take B1: in assay [1], the “EC50 (cAMP production)” value came out at 473 pM and the “Ratio (EC50 hCTR / EC50 hAMYR3)” value is 7. Besides, the “EC50 (cAMP production)” value in assay [2] amounted to 3420 pM.

B2: Peptide 107 (SEQ ID NO: 107) (peptide)
peptide: K([γGlu-C18 diacid])KCNTATCATQRLANFLRHSSNNFGP[Aib]LPPTNVGSNTY-NH2
modifications: disulfide 3-8; N-terminus assumed
SMILES: CC(C)C[C@H](NC(=O)[C@H](CCCNC(=N)N)NC(=O)[C@H](CCC(N)=O)NC(=O)[C@@H](NC(=O)[C@H](C)NC(=O)[C@@H]1CSSC[C@H](NC(=O)[C@H](CCCCN)NC(=O)[C@@H](N)CCCCNC(=O)CC[C@H](NC(=O)CCCCCCCCCCCCCCCCC(=O)O)C(=O)O)C(=O)N[C@@H](CC(N)=O)C(=O)N[C@@H]([C@@H](C)O)C(=O)N[C@@H](C)C(=O)N[C@@H]([C@@H](C)O)C(=O)N1)[C@@H](C)O)C(=O)N[C@@H](C)C(=O)N[C@@H](CC(N)=O)C(=O)N[C@@H](Cc1ccccc1)C(=O)N[C@@H](CC(C)C)C(=O)N[C@@H](CCCNC(=N)N)C(=O)N[C@@H](Cc1c[nH]cn1)C(=O)N[C@@H](CO)C(=O)N[C@@H](CO)C(=O)N[C@@H](CC(N)=O)C(=O)N[C@@H](CC(N)=O)C(=O)N[C@@H](Cc1ccccc1)C(=O)NCC(=O)N1CCC[C@H]1C(=O)NC(C)(C)C(=O)N[C@@H](CC(C)C)C(=O)N1CCC[C@H]1C(=O)N1CCC[C@H]1C(=O)N[C@H](C(=O)N[C@@H](CC(N)=O)C(=O)N[C@H](C(=O)NCC(=O)N[C@@H](CO)C(=O)N[C@@H](CC(N)=O)C(=O)N[C@H](C(=O)N[C@@H](Cc1ccc(O)cc1)C(N)=O)[C@@H](C)O)C(C)C)[C@@H](C)O
In the case of B2, in assay [1], the “EC50 (cAMP production)” value was 1070 pM and the “Ratio (EC50 hCTR / EC50 hAMYR3)” value turned out to be 25. Besides, the “EC50 (cAMP production)” value in assay [2] was 26300 pM.

B3: Peptide 102 (SEQ ID NO: 102) (peptide)
peptide: K([γGlu-C18 diacid])KCNTATCATQRLANFL[Aib]HSSNNFGPILPPTNVGS[Aib]TY-NH2
modifications: disulfide 3-8; N-terminus assumed
SMILES: CC[C@H](C)[C@H](NC(=O)[C@@H]1CCCN1C(=O)CNC(=O)[C@H](Cc1ccccc1)NC(=O)[C@H](CC(N)=O)NC(=O)[C@H](CC(N)=O)NC(=O)[C@H](CO)NC(=O)[C@H](CO)NC(=O)[C@H](Cc1c[nH]cn1)NC(=O)C(C)(C)NC(=O)[C@H](CC(C)C)NC(=O)[C@H](Cc1ccccc1)NC(=O)[C@H](CC(N)=O)NC(=O)[C@H](C)NC(=O)[C@H](CC(C)C)NC(=O)[C@H](CCCNC(=N)N)NC(=O)[C@H](CCC(N)=O)NC(=O)[C@@H](NC(=O)[C@H](C)NC(=O)[C@@H]1CSSC[C@H](NC(=O)[C@H](CCCCN)NC(=O)[C@@H](N)CCCCNC(=O)CC[C@H](NC(=O)CCCCCCCCCCCCCCCCC(=O)O)C(=O)O)C(=O)N[C@@H](CC(N)=O)C(=O)N[C@@H]([C@@H](C)O)C(=O)N[C@@H](C)C(=O)N[C@@H]([C@@H](C)O)C(=O)N1)[C@@H](C)O)C(=O)N[C@@H](CC(C)C)C(=O)N1CCC[C@H]1C(=O)N1CCC[C@H]1C(=O)N[C@H](C(=O)N[C@@H](CC(N)=O)C(=O)N[C@H](C(=O)NCC(=O)N[C@@H](CO)C(=O)NC(C)(C)C(=O)N[C@H](C(=O)N[C@@H](Cc1ccc(O)cc1)C(N)=O)[C@@H](C)O)C(C)C)[C@@H](C)O
As for B3, in assay [1], the “EC50 (cAMP production)” value came to 479 pM and the “Ratio (EC50 hCTR / EC50 hAMYR3)” value was determined as 3. The “EC50 (cAMP production)” value in assay [2] was 1630 pM.

B4: Peptide 108 (SEQ ID NO: 108) (peptide)
peptide: K([γGlu-C18 diacid])KCNTATCATQRLANFLVHSSNNFGPI[Aib]PPTNVGSNTY-NH2
modifications: disulfide 3-8; N-terminus assumed
SMILES: CC[C@H](C)[C@H](NC(=O)[C@@H]1CCCN1C(=O)CNC(=O)[C@H](Cc1ccccc1)NC(=O)[C@H](CC(N)=O)NC(=O)[C@H](CC(N)=O)NC(=O)[C@H](CO)NC(=O)[C@H](CO)NC(=O)[C@H](Cc1c[nH]cn1)NC(=O)[C@@H](NC(=O)[C@H](CC(C)C)NC(=O)[C@H](Cc1ccccc1)NC(=O)[C@H](CC(N)=O)NC(=O)[C@H](C)NC(=O)[C@H](CC(C)C)NC(=O)[C@H](CCCNC(=N)N)NC(=O)[C@H](CCC(N)=O)NC(=O)[C@@H](NC(=O)[C@H](C)NC(=O)[C@@H]1CSSC[C@H](NC(=O)[C@H](CCCCN)NC(=O)[C@@H](N)CCCCNC(=O)CC[C@H](NC(=O)CCCCCCCCCCCCCCCCC(=O)O)C(=O)O)C(=O)N[C@@H](CC(N)=O)C(=O)N[C@@H]([C@@H](C)O)C(=O)N[C@@H](C)C(=O)N[C@@H]([C@@H](C)O)C(=O)N1)[C@@H](C)O)C(C)C)C(=O)NC(C)(C)C(=O)N1CCC[C@H]1C(=O)N1CCC[C@H]1C(=O)N[C@H](C(=O)N[C@@H](CC(N)=O)C(=O)N[C@H](C(=O)NCC(=O)N[C@@H](CO)C(=O)N[C@@H](CC(N)=O)C(=O)N[C@H](C(=O)N[C@@H](Cc1ccc(O)cc1)C(N)=O)[C@@H](C)O)C(C)C)[C@@H](C)O
In the case of B4, the “EC50 (cAMP production)” value in assay [1] was determined as 801 pM; in assay [2] it was 6810 pM. Also, the “Ratio (EC50 hCTR / EC50 hAMYR3)” value in assay [1] came to 8.

B5: Peptide 109 (SEQ ID NO: 109) (peptide)
peptide: K([γGlu-C18 diacid])KCNTATCATQRLANFLVHSSN[Aib]FGPILPPTNVGSNTY-NH2
modifications: disulfide 3-8; N-terminus assumed
SMILES: CC[C@H](C)[C@H](NC(=O)[C@@H]1CCCN1C(=O)CNC(=O)[C@H](Cc1ccccc1)NC(=O)C(C)(C)NC(=O)[C@H](CC(N)=O)NC(=O)[C@H](CO)NC(=O)[C@H](CO)NC(=O)[C@H](Cc1c[nH]cn1)NC(=O)[C@@H](NC(=O)[C@H](CC(C)C)NC(=O)[C@H](Cc1ccccc1)NC(=O)[C@H](CC(N)=O)NC(=O)[C@H](C)NC(=O)[C@H](CC(C)C)NC(=O)[C@H](CCCNC(=N)N)NC(=O)[C@H](CCC(N)=O)NC(=O)[C@@H](NC(=O)[C@H](C)NC(=O)[C@@H]1CSSC[C@H](NC(=O)[C@H](CCCCN)NC(=O)[C@@H](N)CCCCNC(=O)CC[C@H](NC(=O)CCCCCCCCCCCCCCCCC(=O)O)C(=O)O)C(=O)N[C@@H](CC(N)=O)C(=O)N[C@@H]([C@@H](C)O)C(=O)N[C@@H](C)C(=O)N[C@@H]([C@@H](C)O)C(=O)N1)[C@@H](C)O)C(C)C)C(=O)N[C@@H](CC(C)C)C(=O)N1CCC[C@H]1C(=O)N1CCC[C@H]1C(=O)N[C@H](C(=O)N[C@@H](CC(N)=O)C(=O)N[C@H](C(=O)NCC(=O)N[C@@H](CO)C(=O)N[C@@H](CC(N)=O)C(=O)N[C@H](C(=O)N[C@@H](Cc1ccc(O)cc1)C(N)=O)[C@@H](C)O)C(C)C)[C@@H](C)O
As for B5, the “EC50 (cAMP production)” value in assay [1] was 82 pM; in assay [2], 176 pM. Also, in assay [1], the “Ratio (EC50 hCTR / EC50 hAMYR3)” value is 2.
